Numbering of substitutions follows the chain as printed. Where two headings read alike, the source gives them in different places. One block for each binder: values may come before it.
Key:
[1] = biological target: T1, recombinant human TFPI (tissue factor pathway inhibitor) (human, UniProt P10646 29-304); test: cell-based or functional assay
[2] = biological target: T1, recombinant human TFPI (tissue factor …); test: SPR, Biacore T-200; TFPI immobilised on CM5 chip, IgG as analyte
Procedure: 10 mM of glycine-HCl (pH 1.5) was run at a flow rate of 30 μL/min for 30 seconds, thereby inducing the dissociation of the antibody associated with the TFPI. The affinity in terms of kinetic rate constants (Kₒₙ and Koff) and equilibrium dissociation constant

[3] = biological target: T1, recombinant human TFPI (tissue factor …); test: cell-based or functional assay; remark: listed apart in the source
[4] = biological target: T1, recombinant human TFPI (tissue factor …); test: cell-based or functional assay; remark: listed apart in the source
[5] = biological target: T1, recombinant human TFPI (tissue factor …); test: cell-based or functional assay; remark: listed apart in the source
[6] = biological target: T1, recombinant human TFPI (tissue factor …); test: cell-based or functional assay; remark: listed apart in the source
[7] = biological target: T1, recombinant human TFPI (tissue factor …); test: yeast-display scFv, FACS with biotinylated TFPI
Procedure: The finally amplified single colonies were collected from the yeast display library, and then cultured in SD medium at 30° C. at 200 rpm for 12 hours. Then, the medium was replaced with SG medium, and the cells were cultured at 25° C. at 200 rpm for 12 hours or more, thereby expressing the antibody on the yeast surface. Next, the yeast cells recovered by centrifugation were washed with PBSF (1% BSA containing PBS) buffer, resuspended in 50 μl of PBSF buffer, and then incubated with a biotin-conjugated recombinant human TFPI protein and anti-c-myc mouse antibody (CAT. No. M4439, Sigma) at room temperature for 30 minutes. The incubated yeast cells were washed with PBSF, resuspended in 50 μl of PBSF buffer, and then incubated with FITC-conjugated anti-mouse antibody (CAT. No. F0257, Sigma) and PE-conjugated streptavidin on ice under a light-shielded condition for 15 minutes. Next, the cells were washed with PBSF buffer, resuspended in 500 μl of PBSF buffer, and then clones showing high values in the FITC and PE wavelength ranges were selected by FACS, thereby obtaining individual clones.

[8] = biological target: T1, recombinant human TFPI (tissue factor …); test: cell-based or functional assay; remark: listed apart in the source
[9] = biological target: T1, recombinant human TFPI (tissue factor …); test: cell-based or functional assay; remark: listed apart in the source
[10] = biological target: T1, recombinant human TFPI (tissue factor …); test: cell-based or functional assay; remark: listed apart in the source

B3: clone 4278 (antibody, V domains shown)
VH: EVQLVESGGGLVKPGGSLRLSCAASGFTFSKYAMNWFRQAPGKGLEWVSTITLGGSYTYYADSVDGRFTISRDNAKNSLYLQMNSLRAEDTAVYYCARQYLDGNFLMDYWGQGTLVTVSS
VL: DVVMTQTPLSLPVTLGQPASISCKSSQSLLDIDGKTYLNWLQQRPGQSPKRLIYLVSKLDSGVPDRFTGSGSGTDFTLKISRVEAEDVGVYYCWQGTHFPFTFGQGTKVEIKR
notes: scFv on yeast at selection; human IgG4/kappa IgG as purified
binding result [7]: binds

B4: clone 1243 (antibody, V domains shown)
VH: EVQLVESGGGLVKPGGSLRLSCAASGFTFSSYAMNWVRQAPGKGLEWVSTITTGGSHTYYADSVHGRFTISRDNAKNSLYLQMNSLRAEDTAVYYCARQDGHFLMDYWGQGTLVTVSS
VL: B3 VL
notes: as for B3
binding result [7]: binds

B5: clone 4034 (antibody, V domains shown)
VH: B4 VH with H65E, H102Y
VL: B3 VL
notes: as for B3
binding result [7]: binds

B8: clone 1223 (antibody, V domains shown)
VH: B4 VH with H57Y, H65E
VL: B3 VL
notes: as for B3
binding result [7]: binds

B10: clone 1248 (antibody, V domains shown)
VH: B4 VH with H65D
VL: B3 VL
notes: as for B3
binding result [7]: binds

B11: clone 1208 (antibody, V domains shown)
VH: B4 VH with H65E
VL: B3 VL with I32V, H98Y, F99L
notes: as for B3
binding result [7]: binds

B12: clone 1232 (antibody, V domains shown)
VH: B4 VH with H57Y, H65D
VL: B3 VL with I32V
notes: as for B3
binding result [7]: binds

The remaining lines, values ahead:

effect of inhibiting TFPI, FXa activity assay, Ab 10 nM [1]: 89% | Kd [2]: 9.4 pM
B1: clone T308 (antibody, human IgG4, V domains shown)
VH: EVKLVESGGGLVKPGGSLKLSCAASGFTFSNYPMSWVRQTPEKRLEWVATISNSGSYTYYPDSVKGRFTISRDNAKNTLYLQMNSLRSEDTAMYYCARQVYGNYEDFDYWGQGTTLTVSS
VL: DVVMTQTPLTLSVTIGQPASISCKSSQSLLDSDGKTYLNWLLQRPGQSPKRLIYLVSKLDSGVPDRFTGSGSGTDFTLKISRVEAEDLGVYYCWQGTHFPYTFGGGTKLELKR

effect of inhibiting TFPI, FXa activity assay, Ab 10 nM [1]: ~69% | effect of inhibiting TFPI, FXa activity assay, Ab 20 nM [1]: ~80% | A405, TF/FVIIa/FX complex assay (FX 5 nM), Ab 1.56 nM [3]: 0.041 | A405, TF/FVIIa/FX complex assay (FX 5 nM), Ab 3.13 nM [3]: 0.05 | A405, TF/FVIIa/FX complex assay (FX 5 nM), Ab 6.25 nM [3]: 0.052 | A405, TF/FVIIa/FX complex assay (FX 5 nM), Ab 12.5 nM [3]: 0.088 | A405, TF/FVIIa/FX complex assay (FX 5 nM), Ab 25 nM [3]: 0.391 | A405, TF/FVIIa/FX complex assay (FX 5 nM), Ab 50 nM [3]: 0.673 | A405, TF/FVIIa/FX complex assay (FX 5 nM), Ab 100 nM [3]: 0.834 | % of Normalized, TF/FVIIa/FX complex assay (FX 5 nM), Ab 1.56 nM [4]: 5.1% | % of Normalized, TF/FVIIa/FX complex assay (FX 5 nM), Ab 3.13 nM [4]: 6.1% | % of Normalized, TF/FVIIa/FX complex assay (FX 5 nM), Ab 6.25 nM [4]: 6.4% | % of Normalized, TF/FVIIa/FX complex assay (FX 5 nM), Ab 12.5 nM [4]: 10.8% | % of Normalized, TF/FVIIa/FX complex assay (FX 5 nM), Ab 25 nM [4]: 48.3% | % of Normalized, TF/FVIIa/FX complex assay (FX 5 nM), Ab 50 nM [4]: 83.2% | % of Normalized, TF/FVIIa/FX complex assay (FX 5 nM), Ab 100 nM [4]: 103% | FXa assay % of FXa alone, 2.5 nM Ab, 10 nM TFPI [5]: 7.1% | FXa assay % of FXa alone, 5 nM Ab, 10 nM TFPI [5]: 33.8% | FXa assay OD, 2.5 nM Ab, 10 nM TFPI [5]: 0.054 | FXa assay OD, 5 nM Ab, 10 nM TFPI [5]: 0.258 | FXa assay OD, 10 nM Ab, 10 nM TFPI [5]: 0.527 | FXa assay OD, 20 nM Ab, 10 nM TFPI [5]: 0.61 | FXa assay % of FXa alone, 2.5 nM Ab, 10 nM TFPI [6]: 7.4% | FXa assay % of FXa alone, 5 nM Ab, 10 nM TFPI [6]: 31% | FXa assay % of FXa alone, 10 nM Ab, 10 nM TFPI [6]: 70.5% | FXa assay % of FXa alone, 20 nM Ab, 10 nM TFPI [6]: 77.5% | FXa assay OD, 2.5 nM Ab, 10 nM TFPI [6]: 0.0615 | FXa assay OD, 5 nM Ab, 10 nM TFPI [6]: 0.256 | FXa assay OD, 10 nM Ab, 10 nM TFPI [6]: 0.583 | FXa assay OD, 20 nM Ab, 10 nM TFPI [6]: 0.64
B2: clone 8 (antibody, V domains shown)
VH: B4 VH with H57Y, H65E, H102N
VL: B3 VL with Q27P, I32V

FXa assay % of FXa alone, 2.5 nM Ab, 10 nM TFPI [8]: 6.9% | FXa assay % of FXa alone, 5 nM Ab, 10 nM TFPI [8]: 7.4% | FXa assay % of FXa alone, 10 nM Ab, 10 nM TFPI [8]: 10.4% | FXa assay % of FXa alone, 20 nM Ab, 10 nM TFPI [8]: 62.5% | FXa assay OD, 2.5 nM Ab, 10 nM TFPI [8]: 0.082 | FXa assay OD, 10 nM Ab, 10 nM TFPI [8]: 0.124 | FXa assay OD, 20 nM Ab, 10 nM TFPI [8]: 0.745
B6: clone 23 (antibody, V domains shown)
VH: B4 VH with S31H, H57Y, H65E
VL: B3 VL with Q27P, F99L

effect of inhibiting TFPI, FXa activity assay, Ab 10 nM [1]: ~34% | effect of inhibiting TFPI, FXa activity assay, Ab 20 nM [1]: ~55% | FXa assay % of FXa alone, 2.5 nM Ab, 10 nM TFPI [8]: 7.3% | FXa assay % of FXa alone, 5 nM Ab, 10 nM TFPI [8]: 10.2% | FXa assay OD, 2.5 nM Ab, 10 nM TFPI [8]: 0.0865 | FXa assay OD, 5 nM Ab, 10 nM TFPI [8]: 0.122 | FXa assay OD, 10 nM Ab, 10 nM TFPI [8]: 0.405 | FXa assay OD, 20 nM Ab, 10 nM TFPI [8]: 0.651
B7: clone 16 (antibody, V domains shown)
VH: B4 VH with S31H, N35T, H65E, H102N
VL: B3 VL with Q27P

FXa assay % of FXa alone, 2.5 nM Ab, 10 nM TFPI [8]: 5.9% | FXa assay % of FXa alone, 5 nM Ab, 10 nM TFPI [8]: 6% | FXa assay % of FXa alone, 10 nM Ab, 10 nM TFPI [8]: 6.5% | FXa assay % of FXa alone, 20 nM Ab, 10 nM TFPI [8]: 7.2%
B9: clone 21 (antibody, V domains shown)
VH: B4 VH with T53K, H57Y, H65D, H102N
VL: B3 VL with Q27P, I32S

effect of inhibiting TFPI, FXa activity assay, Ab 10 nM [1]: ~76% | effect of inhibiting TFPI, FXa activity assay, Ab 20 nM [1]: ~85% | A405, TF/FVIIa/FX complex assay, Ab 1.56 nM [9]: 0.046 | A405, TF/FVIIa/FX complex assay, Ab 3.13 nM [9]: 0.054 | A405, TF/FVIIa/FX complex assay, Ab 6.25 nM [9]: 0.075 | A405, TF/FVIIa/FX complex assay, Ab 12.5 nM [9]: 0.101 | A405, TF/FVIIa/FX complex assay, Ab 25 nM [9]: 0.528 | A405, TF/FVIIa/FX complex assay, Ab 50 nM [9]: 0.818 | A405, TF/FVIIa/FX complex assay, Ab 100 nM [9]: 0.859 | % of Normalized, TF/FVIIa/FX complex assay, Ab 1.56 nM [10]: 5.4% | % of Normalized, TF/FVIIa/FX complex assay, Ab 3.13 nM [10]: 6.4% | % of Normalized, TF/FVIIa/FX complex assay, Ab 6.25 nM [10]: 8.8% | % of Normalized, TF/FVIIa/FX complex assay, Ab 12.5 nM [10]: 11.9% | % of Normalized, TF/FVIIa/FX complex assay, Ab 25 nM [10]: 62.2% | % of Normalized, TF/FVIIa/FX complex assay, Ab 50 nM [10]: 96.5% | % of Normalized, TF/FVIIa/FX complex assay, Ab 100 nM [10]: 101% | FXa assay % of FXa alone, 2.5 nM Ab, 10 nM TFPI [6]: 7.8% | FXa assay % of FXa alone, 5 nM Ab, 10 nM TFPI [6]: 44.8% | FXa assay OD, 2.5 nM Ab, 10 nM TFPI [6]: 0.0645 | FXa assay OD, 5 nM Ab, 10 nM TFPI [6]: 0.37 | FXa assay OD, 10 nM Ab, 10 nM TFPI [6]: 0.624 | FXa assay OD, 20 nM Ab, 10 nM TFPI [6]: 0.706
B13: clone 13 (antibody, V domains shown)
VH: B4 VH with S49G, H65E, H102N
VL: B3 VL with Q27P

binding result [7]: binds
B14: clone 4041 (antibody, V domains shown)
VH: B4 VH with N35S, H65E, H102Y
VL: B3 VL with I32V
notes: as for B3

binding result [7]: binds
B15: clone 15 (antibody, V domains shown)
VH: B3 VH with L53T, D65E, Y100H, L101P, D102Y
VL: B3 VL with Q27P, I32S, T97F, H98Y
notes: human IgG4/kappa IgG as purified

binding result [7]: binds
B16: clone 4011 (antibody, V domains shown)
VH: B4 VH with S30Y, H65E, H102N
VL: B3 VL with I32V, F99L
notes: as for B3

binding result [7]: binds
B17: clone 14 (antibody, V domains shown)
VH: B3 VH
VL: B3 VL with Q27P, I32S, H98Y
notes: as for B15

Source: patent US20180030151A1 (MOGAM INSTITUTE FOR BIOMEDICAL RESEARCH, published 2018)
